# Experimental data from the nanobody polyreactivity screen of Harvey et al. (2022).
# Assay: yeast display, Sf9 membrane polyspecificity reagent, FACS + sequencing; frameworks hold sequencing errors
# How it was run: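 Sorting gates, low and high (top ~1%), were placed on anti-HA fluorescence to track expression and on streptavidin fluorescence to track reagent binding. A clone's polyreactivity label is taken from the gate it came out of. The reagent was 10% biotinylated, detergent-solubilized Sf9 membrane, applied for 1 hour at 4 °C to galactose-induced yeast display cells.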
row,Sequence,polyreactivity (PSR sort gate)
1,QVQLVESGGGLVQAGGSLRLSCAASASIFYRYAMGWYRQAPGKERELVAAITRSGARTYYADSVKGRFTISRDNAKNTVYLQMNSLKPEDNAVYYCAADDPGYYQVEYWGQGTQVTVSS,high polyreactivity
2,QVQLVESGGGLVQAGGSLRLSCAASASIFYYYAMGWYRQEPGKERELVAALSDSGSTNYADSVKGRFTISRDNAKNTVYLQLNSLKPEDTAVYYCAAGFGSRRYRGVYYKMYYRGQGTQVTVSS,high polyreactivity
3,QVQLVESGGGLVQAGGSLRLSCAASASILGSNAMGWYSQAPGKEREFVAAITWTGGSTYYADSVKGRFTISRDNAKNTVYLQMNSLKPEDSAVYYWAKDVKYVKMDDWGQGTQVTVSS,low polyreactivity
4,QVQLVESGGGLVQAGGSLRLSCAASASNFGYNAMGRYRQAPGKERELVAVITDSGGSTYYADSVKGRFTISRDNAKNTVYLQMNSLKPEDTAVYYCAKVYGLVVRGHVILSGFDYWGQGTQVTVSS,low polyreactivity
5,QVQLVESGGGLVQAGGSLRLSCAASASNSNGMTWYGIDRRLGRKELVAGIRSAGSTNYADSVKGRFTISRDNAKNTFYLQMNSLKPEDTAGYYCAKDYRWVWRKYGYWGQGTQVTVSS,low polyreactivity
6,QVQLVESGGGLVQAGGSLRLSCAASASTFYGYAMGRFRQAPGKERELVAAISSGGSTYYADSVKGRFTISRDNAKNTVYVQMNSLKPEVTAVYYCAAYSYPKKYGYWGQGTQVTVSL,high polyreactivity
7,QVQLVESGGGLVQAGGSLRLSCAASASTFYSYTMGWSRQAPGKERELVAAISRSGGRTYYADSVKGRFTISRDNAKNTVYLQMNSLKPEDTAVYYCAARWLGVDDYEYWGQGTQVTVSS,high polyreactivity
8,QVQLVESGGGLVQAGGSLRLSCAASASTLRRYAMGLYRQAPGQERELVAAISGTGSRTYYADSVKGRFTISRDTAKITVYLQMNSLKPEDSAVYYCNASPYRLTENDYWGQGTQVTVSS,high polyreactivity
9,QVQLVESGGGLVQAGGSLRLSCAASAYTFYAMGWYRQAPGKERELVAAITYRGARTYYADSVKRRFTISRDNEKNTVYLQMNSLKPEYTAVYYCNADYWGQGTQVTVSS,low polyreactivity
10,QVQLVESGGGLVQAGGSLRLSCAASCRIFSYYVMGWYRQAPGKERELVAAISYRGGGTYYADSVKGRFTISRDNAKNNFYLQMNSLKPEDTAVYYCNADTYSNTYRAYDYWGQGTQVTVSS,low polyreactivity
11,QVQLVESGGGLVQAGGSLRLSCAASFYVYAMGWYRQAPGKERELVAAITYSGGGTYYADSVKGRFTISRDNAKNTVYLQMNSLKPEDTAVYYCAADDYFYDYDYWGQGTQVTVSS,low polyreactivity
12,QVQLVESGGGLVQAGGSLRLSCAASGAIFPSYVMGWYRPAPGKERELVAAITKSTGTTYYADSVKGRFTISRDNAKNTVYLQMNSLKPEDTAVYYCAASGSWSTNTAIYKFYYWGQGTQVTVSS,low polyreactivity
13,QVQLVESGGGLVQAGGSLRLSCAASGAIFSWNAMGWYRQAPGKERELVATITWNGGRTYYADSVKGRFTISRDNAKKTVYLQMNSLKPEATAVYYCAARNTQPASYGYGYWGQGTQVTVSS,high polyreactivity
14,QVQLVESGGGLVQAGGSLRLSCAASGAILYGNAMGWYRQAPGKERELVAAISYSGGRTYYADSVKGRFTISRDNAKYTVYLQMNSLKPEDTAVYYCASLHSGRVQNFDYWGQGTQVTVSS,high polyreactivity
15,QVQLVESGGGLVQAGGSLRLSCAASGATFPVYAMGWYRQAPGKEWELVAAISRSGASTYYADSVKGRFTISRDNAKNTVYLQMNSLKPEDTAVYYCARGYQGRLKYEYWGQGTQVNVSS,low polyreactivity
16,QVQLVESGGGLVQAGGSLRLSCAASGATFWYNAMRWYREAPGKERELVAAITWTGDGTYYADSVKGRFTISRDNAKNTVYLQMNSLKPEDTAVYYCAAAYFQWSTSIVGLDAWYDYWGQGSQVTVSS,low polyreactivity
17,QVQLVESGGGLVQAGGSLRLSCAASGCIFWKDAMGWYRQAPGKERELVAAITSGGGTYYADSVKGLFTISRDNAKNTVYLQMNSLKPEDTAVYYCAARSLSVARRRPYYYWGQGTQVTVSS,high polyreactivity
18,QVQLVESGGGLVQAGGSLRLSCAASGFDGYAMGWYRQAPGKERELVAASSWSGSRTYYADSVKGRFTISRDNAKNTVYLQMNSLKPEDTAVYYCNAVLRYSIYPSYSFSYVGYYYWGHGTQVTVSS,high polyreactivity
19,QVQLVESGGGLVQAGGSLRLSCAASGFICGLNAMGLYRQAPGKERELVAAIRSASSTNYADSVKGRFTISRDNAKNTVYLQMNSLKPEDTAVYYCAAEYVTYQQGFWGYDYWGQGTQVTVSS,low polyreactivity
20,QVQLVESGGGLVQAGGSLRLSCAASGFIFADNAMGWYRQAPGKERELVAGITSGGITNYADSVKGRFTISRDNAKNTVYLQMNSLKQVDTAVYYCAVYYRRWFSRYDYWGQGTQVTVSS,low polyreactivity
21,QVQLVESGGGLVQAGGSLRLSCAASGFIFADNPMGWYRQAPGKERELVAGITSGGITNYADSVKGRFTISRDNAKNTVYLQMNSLKPEDTAVYYCAVYYRRWFSRYDYWGQGTQVTVSS,low polyreactivity
22,QVQLVESGGGLVQAGGSLRLSCAASGFIFADYAMGWYRPAPGKERELVAAISSGGRTKYADSVKGRFTISRDNAKNTVYLQMNSLIPDDTAVYYCAKALRRVPRIQAYPVPQGDYWGHGTQVTVSS,high polyreactivity

row,Sequence,polyreactivity (PSR sort gate)
1,QVQLVESGGGLVQAGGSLRLSCAASGFIFADYAMGWYRQAPGKARELVAAINRGASTYYADSVKGRFSISRDNAKNTVYFQMNSLKPEDTAVYYCAAAGYSRGGRGGYWGHGTQVTVSS,high polyreactivity
2,QVQLVESGGGLVQAGGSLRLSCAASGFIFADYTMGWSRQAPGQERELVAVITSGGSTHYADSVKGRFTISRDNAKNTVYLQMNSLKPEDTAVYYCAARSYRPTRGDYWGQGTKVTVSS,high polyreactivity
3,QVQLVESGGGLVQAGGSLRLSCAASGFIFAEYAMGWYRQAPGKEREFVASITYSGGRTYYADSVKGRFTISRDNAKNTVYLQMNSLKPEDTAVYYCATARYRYHYYSWGQGTQVTVSS,high polyreactivity
4,QVQLVESGGGLVQAGGSLRLSCAASGFIFAFNAMGWYRQAPGKEREFVASITGSSDSTYYADSVKGRFTISRDNAKNTVYLQMNSLKPEDTAVYYCAADPASSYGKYSYYYWGQGTQVTVSS,high polyreactivity
5,QVQLVESGGGLVQAGGSLRLSCAASGFIFAGYAMGWYRQAPGKERELVAAINRNGRSTYYADSVKGRFTISRDNAKNTVYLQMNSLKPEDTAVYYCNARSFARIGAGKGDYWGQGTQVTVSS,high polyreactivity
6,QVQLVESGGGLVQAGGSLRLSCAASGFIFAKYAMGWYRQAPGKERELVAAITSGGSTNYADSVKGRFTISRDNAKNTVYLQMNSLKPEYTAVYYCNRGFDWWYRYRHYDYWGQGTQVTVSS,low polyreactivity
7,QVQLVESGGGLVQAGGSLRLSCAASGFIFALYTMGWYRQAPGKERELVARIRGGGRTNYADSVKGRFTISRDNAKNTVYLQMNSLKPEDTAVYYCNARKTVGMDYWGQGTQVTVSS,low polyreactivity
8,QVQLVESGGGLVQAGGSLRLSCAASGFIFAQNAMGWYRQAPGKEREFVAAISSRGSRTYYADSVKGRFTISRDNAKNTVYLQMNSLKPEDTAVYYCAASRRTRSMNYWGQGTQVTVSS,high polyreactivity
9,QVQLVESGGGLVQAGGSLRLSCAASGFIFARNAMGWYRQAPGKERELVAVISTRGRTYYADSVKGRFTISRDNAKNTVYLQMNSLKPEDTAVYYCNADKVIGYDYWGQGTQVTVSS,high polyreactivity
10,QVQLVESGGGLVQAGGSLRLSCAASGFIFARYAMGWYRQAPGKERELVAAISSSGSSSYYADSVKGRFTISRDNAKNTVYLQMNSLKPEDTAVYYCAAKDSKYRNSPLYNYWGQGTQVTVSS,high polyreactivity
11,QVQLVESGGGLVQAGGSLRLSCAASGFIFARYAMGWYRQAPGKERELVASITRRGGSTYYADSVKGRFTISRDYEKITVYLQMNSLKPEDTAVYYCARPNLLSGDYWGQGTQVTVSS,high polyreactivity
12,QVQLVESGGGLVQAGGSLRLSCAASGFIFARYAMGWYRQAPGKERELVATISYTGGRRYYADSVKGRFTISRDHANNTVYLQINSLKPEDTAVYYVNAVYSYDRQRHEYWGQGTQVTVSS,high polyreactivity
13,QVQLVESGGGLVQAGGSLRLSCAASGFIFASYAMGWYRQAPGKERELVAAISSSGGRTYYADSVKGRFTISRDNAKNTVYLQMNSLKPEDTAVYYCAAPRIYIPAEYYSWGQGTQVTVSS,high polyreactivity
14,QVQLVESGGGLVQAGGSLRLSCAASGFIFASYAMGWYRQAPGKERELVAAISYRGGTTYYADSVKGRFTISRDNAKNTVYLQMNSLKPEDTALYYCAADSPENRYNYWGQGTQVTVSS,high polyreactivity
15,QVQLVESGGGLVQAGGSLRLSCAASGFIFASYAMGWYRQAPGKERELVAAITQSRGITYYADSVKGRFTISRDNAKNTVYLQMNSLKPEDTAGYYCNTPLLKRTSRGRERNYWGQGTQVTVSS,low polyreactivity
16,QVQLVESGGGLVQAGGSLRLSCAASGFIFASYAMGWYRQAPWKERELVAAISYRGGTTYYADSVKGRFTISRDNAKNTVYLQMNSLKPEDTAVYYCAADSPENRYNDWGQGTQVTVSS,high polyreactivity
17,QVQLVESGGGLVQAGGSLRLSCAASGFIFATNAMGWYRQAPGKEREFVAAITSGGSTYYADSVKGRFTISRDNAKNTVYLQMNSLKPEDTAVYYCNARTYSRVTRQTYRYRPYDYWGQGTQVTVSS,high polyreactivity
18,QVQLVESGGGLVQAGGSLRLSCAASGFIFAYNAMGWYRQAPGKEREFVAAINSGGDSTYYADSVKGRFTISRDYANNTVYLQMNSLKPEDTAVYSCAAVIGNKRYYYWGQGTQVTVSS,low polyreactivity
19,QVQLVESGGGLVQAGGSLRLSCAASGFIFAYNAMGWYRQAPGKERELVAAISWSGGSTYYADSVKGRFTISRDNAKNTVYLQMNSLKPEDTAVYYCNKYIRYPFKRYGYWGQGTQVTVSS,high polyreactivity
20,QVQLVESGGGLVQAGGSLRLSCAASGFIFAYNAMGWYRQAPGKERELVAAISWSGGSTYYADYVKGRFTISRDNAKNTVYLQMNSLKPEDTAVYYCNAVSYYGARYDYWGQGTQVTVSS,high polyreactivity
21,QVQLVESGGGLVQAGGSLRLSCAASGFIFAYYAMGWYRQAPGKERELVAAISSRGGTYYADSVKGPFTISRDNAKNTVYLQMNSLKPEDTAVYYCAAASYTWVSLGYEYWGQGTQVTVSS,high polyreactivity
